Test results: patent US20260152555A1 (HUAHUI HEALTH, published 2026)

Assays:
hCD112R-ECD-His6-Avi [1] = biological target: T1, hCD112R-ECD-His6-Avi (human, UniProt Q6DKI7 42-172, biotinylated (Avi tag) in the ELISA assays); assay: SPR (Biacore T200), multi-cycle; H733 captured on anti-hFc Ab, hCD112R-ECD-His6-Avi injected; 1:1 Langmuir [Cont') B]
T1 construct: range 42-172; Expressed in HEK 293F cells; Analyte in SPR, and captured on streptavidin in ELISA; also called biotinylated hCD112R-ECD-His6-Avi; not shown: C-terminal His6-Avi tag
T1 sequence (looked up): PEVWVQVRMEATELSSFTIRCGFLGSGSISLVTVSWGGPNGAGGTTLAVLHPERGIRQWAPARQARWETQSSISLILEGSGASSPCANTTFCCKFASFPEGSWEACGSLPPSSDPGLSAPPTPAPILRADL
Description: (§1) Anti-hFc Ab (Thermo Fisher) was covalently attached to surfaces of a CM5 sensor chip using an amine coupling kit (GE Healthcare). Abs at optimal concentrations were captured on the chip and the analytes (hCD112R-ECD-His₆-Avi) at single concentration or serial dilutions were then injected. Binding kinetics were evaluated using a 1:1 Langmuir binding model. The association rates (ka), dissociation rates (kd), and affinity constants (KD) were calculated using Biacore T200 evaluation software.

hCD112R-ECD-His6-Avi [2] = biological target: T1, hCD112R-ECD-His6-Avi; assay: ELISA-based competition, biotinylated hCD112R-ECD-His6-Avi on streptavidin, competitor hCD112-ECD-mFc at 0.1 ug/ml
Description: Biotinylated hCD112R-ECD-His₆-Avi protein antigen was captured with streptavidin (Sigma) coated 96-well plates (Nunc, MaxiSorp™). H733 serially diluted in 2% milk/PBS containing 0.1 μg/ml of the hCD112-ECD-mFc protein were added to the ELISA plates to test for competitive binding between hCD112R and hCD112. The signal was measured via ligand detection using HRP-anti-mouse IgG secondary Ab (Thermo Fisher Scientific).

hCD112R-ECD-His6-Avi [3] = biological target: T1, hCD112R-ECD-His6-Avi; assay: SPR (Biacore T200), multi-cycle, H733 captured by anti-hFc Ab, hCD112R-ECD-His6-Avi as analyte, 1:1 Langmuir model
Description: as §1

[4] = biological target: T2, human CD112R, full length, expressed on cells (YTS-hCD112R; Jurkat-NFAT-luc-hCD112R) (human, UniProt Q6DKI7 42-326); assay: cell-based or functional assay
T2 sequence (looked up): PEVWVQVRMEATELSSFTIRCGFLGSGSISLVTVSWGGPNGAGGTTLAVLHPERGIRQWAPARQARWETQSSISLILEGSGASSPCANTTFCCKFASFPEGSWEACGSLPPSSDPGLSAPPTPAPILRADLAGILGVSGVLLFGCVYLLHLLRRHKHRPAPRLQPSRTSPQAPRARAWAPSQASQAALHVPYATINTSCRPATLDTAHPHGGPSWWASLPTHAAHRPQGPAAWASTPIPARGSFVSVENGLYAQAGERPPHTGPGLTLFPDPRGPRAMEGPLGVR

[5] = biological target: V90A, W100A, or E145A mutation of hCD112R (hCD112R-ECD-mFc variants, as a group); assay: SPR, multi-cycle, H733-hIgG4 captured by anti-hFc Ab, hCD112R-ECD-mFc variants as analytes (3.125-100 nM)
hCD112R-ECD-mFc WT = biological target: T3, hCD112R-ECD-mFc WT (human; mouse, UniProt Q6DKI7 42-172); assay: SPR (Biacore T200), multi-cycle; H733-hIgG4 captured on anti-hFc Ab, hCD112R-ECD-mFc WT injected (3.125-100 nM); 1:1 Langmuir [Cont') B]
T3 construct: range 42-172; also called WT hCD112R; wildtype (WT) hCD112R protein; not shown: Fc domain of mouse IgG2a
T3 sequence (looked up): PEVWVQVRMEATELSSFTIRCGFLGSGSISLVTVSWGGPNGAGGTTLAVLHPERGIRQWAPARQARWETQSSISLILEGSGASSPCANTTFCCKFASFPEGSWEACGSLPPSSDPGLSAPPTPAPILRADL
Description: (§2) Kinetic analyses of the bindings of WT or mutated hCD112R-ECD-mFc proteins to H733 and hCD112-ECD were performed on a Biacore T200 instrument (Biacore, GE Healthcare). For the single-cycle SPR analysis, anti-mFc Ab (Thermo Fisher) was covalently attached to surfaces of a CM5 sensor chip using an amine coupling kit (GE Healthcare). WT or mutated hCD112R-ECD mFc fusion proteins were captured on the chip and H733-hIgG4 or hCD112-ECD-hFc were then injected. For the multi-cycle SPR analysis, anti-hFc Ab (Thermo Fisher) was covalently attached to surfaces of a CM5 sensor chip using an amine coupling kit (GE Healthcare). H733-hIgG4 or hCD112-ECD-hFc protein was captured on the chip and 2-fold serially diluted WT or mutated hCD112R-ECD-mFc proteins (3.125-100 nM) were then injected. Binding kinetics were evaluated using a 1:1 Langmuir binding model. The association rates (ka), dissociation rates (kd), and affinity constants (KD) were calculated using Biacore T200 evaluation software.

[6] = biological target: T4, hCD112R-ECD-mFc V90A variant (human; mouse, UniProt Q6DKI7 42-172); assay: SPR (Biacore T200), multi-cycle; H733-hIgG4 captured on anti-hFc Ab, hCD112R-ECD-mFc variant injected (3.125-100 nM); 1:1 Langmuir [Cont') B]
T4 construct: range 42-172; also called V90A mutation of hCD112R; not shown: Fc domain of mouse IgG2a
T4 sequence (looked up): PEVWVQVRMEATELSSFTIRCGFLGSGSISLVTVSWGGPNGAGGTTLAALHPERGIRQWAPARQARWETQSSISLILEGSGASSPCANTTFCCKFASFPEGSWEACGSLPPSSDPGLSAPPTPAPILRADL
Description: as §2

B1: H733 (humanized Ab composed of 733-VH-humanV2 and 733-VL-human-C91S) (antibody, human IgG4, V domains shown)
VH: QVQLVQSGAEVKKPGASVKVSCKASGYTFTNYLIEWVRQAPGQGLEWMGVINPGHGFTNYAQKFQGRVTMTRDTSTSTVYMELSSLRSEDTAVYYCARGEWDWYFDVWGQGTTVTVSS
VL: DIQLTQSPSFLSASVGDRVTITCKASQNVGTAVAWYQQKPGKAPKLLIYSTSNRYTGVPSRFSGSGSGTEFTLTISSLQPEDFATYYCQQSSSYPFTFGGGTKVEIK
notes: also called H733-hIgG4; H733 mAb (hIgG4 form)
B1 gave a koff (hCD112R-ECD-His6-Avi [1]) of 0.000865 s⁻¹, a kon (hCD112R-ECD-His6-Avi [1]) of 1.33e+06 M⁻¹ s⁻¹ and an IC50 (hCD112R-ECD-His6-Avi [2]) of 0.87 µg/mL. The Kd (hCD112R-ECD-His6-Avi [3]) was 650 pM, the “EC50 of luciferase production, Jurkat-NFAT-luc-hCD112R reporter cells with CHO-OKT3scFv_hCD112 cells” value [4] was 0.39 µg/mL and the fold decrease of binding as compared with WT hCD112R [5] was 4 to 15 fold. The Kd (hCD112R-ECD-mFc WT) was 333 pM, the koff (hCD112R-ECD-mFc WT) was 0.000364 s⁻¹ and the kon (hCD112R-ECD-mFc WT) was 1.1e+06 M⁻¹ s⁻¹. The Kd [6] was 2010 pM, the koff [6] was 0.000475 s⁻¹ and the kon [6] was 237000 M⁻¹ s⁻¹.
